What was measured:
[1] = target: T1, QP1165 after cleavage to N-terminal isoleucine (IAFLKQRVWK); assay: on-chip dynamic sequencing of QP1165, PS1875 run, trace Aperture=295010
T1 peptide: IAFLKQRVWK

[2] = target: T2, QP1165 after cleavage to N-terminal leucine (LKQRVWK); assay: as above
T2 peptide: LKQRVWK

[3] = target: T1, QP1165 after cleavage to N-terminal …; assay: on-chip dynamic sequencing of QP1165, PS1875 run, trace Aperture=340501
[4] = target: T2, QP1165 after cleavage to N-terminal …; assay: as above
[5] = target: T2, QP1165 after cleavage to N-terminal …; assay: on-chip dynamic sequencing of QP1165, PS1875 run, trace Aperture=430641
[6] = target: T1, QP1165 after cleavage to N-terminal …; assay: on-chip dynamic sequencing of QP1165, PS2121 run, trace Aperture=740473
[7] = target: T2, QP1165 after cleavage to N-terminal …; assay: as above
[8] = target: T1, QP1165 after cleavage to N-terminal …; assay: on-chip dynamic sequencing of QP1165, PS2123 run, trace Aperture=501326
[9] = target: T2, QP1165 after cleavage to N-terminal …; assay: as above
[10] = target: T2, QP1165 after cleavage to N-terminal …; assay: on-chip dynamic sequencing of QP1165, PS2132 run, trace Aperture=1826247
[11] = target: T1, QP1165 after cleavage to N-terminal …; assay: on-chip dynamic sequencing of QP1165, PS2121 run, trace Aperture=1683362
[12] = target: T2, QP1165 after cleavage to N-terminal …; assay: as above
[13] = target: T1, QP1165 after cleavage to N-terminal …; assay: on-chip dynamic sequencing of QP1165, PS2123 run, trace Aperture=1168773
[14] = target: T2, QP1165 after cleavage to N-terminal …; assay: as above
[15] = target: T1, QP1165 after cleavage to N-terminal …; assay: on-chip dynamic sequencing of QP1165, 500 nM PS1875 plus five recognizers, 7305 alignments
[16] = target: T2, QP1165 after cleavage to N-terminal …; assay: as above
[17] = target: T1, QP1165 after cleavage to N-terminal …; assay: on-chip dynamic sequencing of QP1165, 500 nM PS1875 plus five recognizers, 3369 alignments
[18] = target: T2, QP1165 after cleavage to N-terminal …; assay: as above
[19] = target: T1, QP1165 after cleavage to N-terminal …; assay: on-chip dynamic sequencing of QP1165, 500 nM PS2132 plus five recognizers, 36192 alignments
[20] = target: T2, QP1165 after cleavage to N-terminal …; assay: as above
[21] = target: T1, QP1165 after cleavage to N-terminal …; assay: on-chip dynamic sequencing of QP1165, 500 nM PS2121 plus five recognizers, 15527 alignments
[22] = target: T2, QP1165 after cleavage to N-terminal …; assay: as above
[23] = target: T1, QP1165 after cleavage to N-terminal …; assay: on-chip dynamic sequencing of QP1165, 500 nM PS2123 plus five recognizers, 62511 alignments
[24] = target: T2, QP1165 after cleavage to N-terminal …; assay: as above

B1: PS1223 (designed binder)
single polypeptide, two PS961 units in tandem: MPTAASATESAIEDTPAPARPEVDGRTKPKRQPRYHVVLWDDDDHTYQYVVVMLRSLFGHPPSRGYRMAKEMDTQGRVIVLTTTREHAELKRDQIHAFGRDRLLARSKGSMKASIEAEEGSAGSAAGSGEFGSAGSAAGSGEFGSAGSAAGSGEFMPTAASATESAIEDTPAPARPEVDGRTKPKRQPRYHVVLWDDDDHTYQYVVVMLRSLFGHPPSRGYRMAKEMDTQGRVIVLTTTREHAELKRDQIHAFGRDRLLARSKGSMKASIEAEE
notes: dye-labelled recognizer for N-terminal L, I, V in the six-recognizer runs; also called PS1223 (LIV)
Which “PD of a recognition segment in an example trace” value (from here on “PD of a recognition segment”) [1] does the source give for B1 here?
Its value is 0.48 s.

And the “PD of a recognition segment” value [2]?
Its value is 3.19 s.

What about the “PD of a recognition segment” value [3] of the same binder?
Its value is 0.49 s.

And the “PD of a recognition segment” value [4]?
Its value is 0.36 s.

What about the “PD of a recognition segment” value [5] of the same binder?
Its value is 0.64 s.

What about the “PD of a recognition segment” value [6] of the same binder?
Its value is 0.5 s.

What about the “PD of a recognition segment” value [7] of the same binder?
Its value is 0.49 s.

And the “PD of a recognition segment” value [8]?
The value was 0.51 s.

What about the “PD of a recognition segment” value [9] of the same binder?
The value was 0.39 s.

And the “PD of a recognition segment” value [10]?
Its value is 0.52 s.

And the “PD of a recognition segment” value [11]?
Its value is 0.52 s.

And the “PD of a recognition segment” value [12]?
Its value is 0.28 s.

What about the “PD of a recognition segment” value [13] of the same binder?
Its value is 0.53 s.

What about the “PD of a recognition segment” value [14] of the same binder?
Its value is 0.39 s.

What about the “IPD (interpulse duration)” value [15] of the same binder?
Its value is 8.02 s.

And the “PD (pulse duration)” value [15]?
The value was 1.15 s.

And the “IPD (interpulse duration)” value [16]?
Its value is 15.4 s.

What about the “PD (pulse duration)” value [16] of the same binder?
Its value is 0.65 s.

What about the “IPD (interpulse duration)” value [17] of the same binder?
Its value is 7.33 s.

And the “PD (pulse duration)” value [17]?
The value was 1.18 s.

What about the “IPD (interpulse duration)” value [18] of the same binder?
The value was 15.3 s.

And the “PD (pulse duration)” value [18]?
The value was 0.66 s.

What about the “IPD (interpulse duration)” value [19] of the same binder?
The value was 9.74 s.

And the “PD (pulse duration)” value [19]?
Its value is 0.66 s.

What about the “IPD (interpulse duration)” value [20] of the same binder?
Its value is 17.4 s.

And the “PD (pulse duration)” value [20]?
Its value is 0.54 s.

And the “IPD (interpulse duration)” value [21]?
The value was 8.64 s.

And the “PD (pulse duration)” value [21]?
Its value is 0.7 s.

What about the “IPD (interpulse duration)” value [22] of the same binder?
The value was 16.6 s.

And the “PD (pulse duration)” value [22]?
Its value is 0.63 s.

And the “IPD (interpulse duration)” value [23]?
Its value is 9.24 s.

What about the “PD (pulse duration)” value [23] of the same binder?
Its value is 0.73 s.

What about the “IPD (interpulse duration)” value [24] of the same binder?
Its value is 17.3 s.

And the “PD (pulse duration)” value [24]?
The value was 0.54 s.

— patent US20240272170A1 (QUANTUM SI, published 2024)
